B1: NHERF1 PDZ1 (11–120) [human] / rhodamine-labeled 22-residue carboxy-terminal NPT2A peptide [modified: 5-(and 6)-carboxytetramethylrhodamine (rhodamine label), coupled to the peptidyl resin after synthesis; 5-(and … (parent)
chain 1: LPRLCCLEKGPNGYGFHLHGEKGKLGQYIRLVEPGSPAEKAGLLAGDRLVEVNGENVEKETHQQVVSRIRAALNAVRLLVVDPETDEQLQKLGVQVREELLRAQEAPGQA
chain 2: ELPPATPSPRLALPAHHNATRL

Variants of: B1
Test: fluorescence polarisation
Details: with rhodamine-labeled 22-residue carboxy-terminal NPT2A peptide [modified: 5-(and 6)-carboxytetramethylrhodamine (rhodamine label), labeled NPT2A peptide 1 µM, read at the highest PDZ1 concentration, est. ~120 µM, parent: 0.11, read off a plot

response | Variant
0.096 | chain 1 LPRLCCLEKGPNGYGFHLHGEKGKLGQYIRLVDPGSPAEKAGLLAGDRLVEVNGENVEKETHQQVVSRIRAALNAVRLLVVDPETDEQLQKLGVQVREELLRAQEAPGQA [chain 1 E33D]
0.1 | chain 1 LPRLCCLEKGPNGYGFNLHGEKGKLGQYIRLVEPGSPAEKAGLLAGDRLVEVNGENVEKETHQQVVSRIRAALNAVRLLVVDPETDEQLQKLGVQVREELLRAQEAPGQA [chain 1 H17N]

From paper PMC4466390, “Canonical and Noncanonical Sites Determine NPT2A Binding Selectivity to NHERF1 PDZ1” (PLoS ONE, 2015)
